The test deals with T1, tandem RBDs-Fc fusion protein (SARS-CoV-2 RBDs-Fc, FIG. 8C).
T1 construct: also called RBDs-IgG Fc; tandem RBD-Fc
Put plainly: ELISA, biotinylated C1q on coated protein.

B1: mouse C1q protein (Complement Technology Cat #M099), biotin-conjugated (other)
chain 1: EDVCRAPNGKDGAPGNPGRPGRPGLKGERGEPGAAGIRTGIRGFKGDPGESGPPGKPGNVGLPGPSGPLGDSGPQGLKGVKGNPGNIRDQPRPAFSAIRQNPMTLGNVVIFDKVLTNQESPYQNHTGRFICAVPGFYYFNFQVISKWDLCLFIKSSSGGQPRDSLSFSNTNNKGLFQVLAGGTVLQLRRGDEVWIEKDPAKGRIYQGTEADSIFSGFLIFPSA
chain 2: QSSCTGPPGIPGIPGVPGVPGSDGQPGTPGIKGEKGLPGLAGDLGEFGEKGDPGIPGTPGKVGPKGPVGPKGTPGPSGPRGPKGDSGDYGATQKVAFSALRTINSPLRPNQVIRFEKVITNANENYEPRNGKFTCKVPGLYYFTYHASSRGNLCVNLVRGRDRDSMQKVVTFCDYAQNTFQVTTGGVVLKLEQEEVVHLQATDKNSLLGIEGANSIFTGFLLFPDMDA
chain 3: SAGCYGIPGMPGMPGAPGKDGHDGLQGPKGEPGIPAVPGTRGPKGQKGEPGMPGHRGKNGPRGTSGLPGDPGPRGPPGEPGVEGRYKQKHQSVFTVTRQTTQYPEANALVRFNSVVTNPQGHYNPSTGKFTCEVPGLYYFVYYTSHTANLCVHLNLNLARVASFCDHMFNSKQVSSGGVLLRLQRGDEVWLSVNDYNGMVGIEGSNSVFSGFLLFPD
With B1, the binding result was “no binding (tested: C1q 2 µg/ml; 800-7.8 ng/well coated)”.

These data come from US20250144199A1 (UNIVERSITY OF MARYLAND COLLEGE PARK, published 2025).
